Tested on: MS2 coat protein
Assay: apparent KD of MS2 coat protein; higher = weaker reporter binding
Conditions: Eterna round: R107
Method: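 RNA-MaP round R107: designed RNA switches with theophylline, tryptophan, arginine or FMN aptamers are transcribed on-chip within common flanks. They are titrated with SNAP-549-labelled MS2 coat protein in RNA-MaP buffer (100 mM Tris pH 7.5, 80 mM KCl, 4 mM MgCl2), without ligand or with the indicated ligand. Median apparent KD per design.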

[1] = input ligand: theophylline 20 uM
[2] = input ligand: theophylline 2 mM
[3] = input ligand: tryptophan 2.4 mM

Sequence	apparent KD of MS2 coat protein (input ligand: arginine 13.2 mM) [nM]	apparent KD of MS2 coat protein [1] [nM]	apparent KD of MS2 coat protein [2] [nM]	apparent KD of MS2 coat protein (input ligand: none) [nM]	apparent KD of MS2 coat protein [3] [nM]
AGUCCUCUGUACCCUGAUGCCCUCACUUUACGAGGACCGGUACGGCCGCCACUCGAAUCCCAACAUGAGGAUCACCCAUGUCGAC [theeternabot_exclusion_MS2_Trp_A_26]	30	40	47		
CCUAUGCAGUCGGCCGCCACUGUACAUGAGGAUCACCCAUGUUCUAAUAUAAUAAGAACUGAAAUCAGGACCGGGACUGUAUAGG [Ex Tryptophan B 2]	1660	27.8	19.7	20.1	19.3
ACAUGAGGAUCACCCAUGUGUGUAAAUCCUCGAGGACCGGUACGGCCGCCACUCGAUCGAGUGUAAGUUGAAUGUAACAUUCAAC [whbob_SS_trypto A_2s8]	42.6	118	108		
ACAUGAGGAUCACCCAUGUAGCCUAGGGAAGGAGCGUCGUAAGAGACAGGUAGGUCGCCCGCAUGUGGAUCACCCAUGUCGAGGG [SSArg A #11]	27.4	48.3	43.6	37.5	38.7
CCGGCCGCAUGAAGGAGCGCACAGCGCUCGCACAUGAGGAUCACCCAUGUAAAUGGGUGCGUGCAGGUAGGUCGCAUGCAGGCAA [Lesobete]	133	544	671	313	472
UGCAUCAUAAUCAUGUUGGUGCUAGGUGAUACCAGCAUCGAAAGAUGCCCUUGGCAGCACCAACAUGAGGAUCACCCAUGUAAUA [(MT)''-(M)'-(T')-(Theo)-(Ms2)_Design1/22_2]	69.2	165			27
GACCCAUGAGUUGUAAAAGCUCAUGGGUCGCGAGGACCGGUACGGCCGCCACUCGGCUGUACAUGAGGAUCACCCAUGUCAGGGU [#1 Same State - Tryptophan A Attempt #27 (HarryS)]	44.8	568	527		
UAAUAAUUCCUCAUGUCACGAGUGGCAUAACGAGGACCGGUACGGCCGCCACUCGAACAUGAGGAUCACCCAUGUAGCCACUCGA [M'-T'-T-MS2-T'' - Design 4]	56.7	286	474		
AUGUCAUUGGUGUAGCUGUGAAAUGGCGAUACCAGCGUGGAAACACGCCCUUGGCAGCGCCAAAACAUGAGGAUCACCCAUGUUA [Pardubice]	36.2	135			80
GGAUUACGAAAGUAGUCCUCAAGUUCGAGACGAGGACCGGUACGGCCGCCACUCGAACAUGAGGAUCACCCAUGUAGCGAAAGCU [Tryptophan A 22]	86.6	382	425	195	181
UACAUGAGGAUCACCCAUGUAUAGAGGGAUACCAGUGUCAGUGAGCACCCUUGGCAGCCCGCGAACAAUGGGUGCGCUAUAUAGU [#20 Exclusion-TheophyllineA]	18.2	46.8			28
AGUCUCAGUGGAAGGAGCGUCGCGACUGCUACAUGAGGAUCACCCAUGUCGCCUUGAGCGCGACAGGUAGGUCGCCACGGUAGGC [Erraraorle]	14.1	29.6	20.8	17.5	18.2
UAUAAAAUAACAGAUACCAGCGUGUUAUAAAACAUGAGGAUCACCCAUGUAGUGAUCAAGCGCCCUUGGCAGCUGGUAUUUUAUG [7.C]	92.3	166			58.1
UGGGUAGCAUAGCUUGAUAGCUACACUGAAGGAGCGAGGAUAACCUCAGGUAGGUCGCAGACAUGAGGAUCACCCAUGUAGAUGG [Same State Arginine A GF18]	63.9	359	231	186	276
AAGGUGAUCCCAGAUACCAGCUCAACAUGAGGAUCACCCAUGUACGGGACGAAAGUCCCGGGCCCUUGGCAGCUGGGUUGCCAAG [SSTheo B #19]	42.2	299			185
GUGUACAUGAGGAUCACCCAUGUCGAGUUACGAGGACCGGUACGGCCGCCACUCGGCGGCUCGACACGGAUAGCGGUGCGUUGCU [Exclusion - Tryptophan A]	18.2	40.8	35.4	33.2	129
CUUGUGCUGACGGCCGCCACUUUAUGGGAGUCCUGUUCUGAUUGAUACAUGAGGAUCACCCAUGUAAGGACCGGGUCGUACCAUA [theeternabot_exclusion_MS2_Trp_B_22]	22.7	27.4	22.7		
AACAUGAGGAUCACCCAUGUAUUGGGUGAUACCAGCCUGAAUAAGGGCCCUUGGCAGCACCGCGCUAACUUUAUGUCUGCGAACC [Rebiercete]	511	432	368	54.1	277
UCGGGCAGAGCGGCCGCCACUGUUUGGCAUGCGGAUGAAGGAACAUGAGGAUCACCCAUGUAGAUUAGGACCGGGCUAGCGGAGA [sscsmullin]	12.1	42.1	18.4	17.2	16.3

Sequence	apparent KD of MS2 coat protein (input ligand: arginine 13.2 mM) [nM]	apparent KD of MS2 coat protein [1] [nM]	apparent KD of MS2 coat protein [2] [nM]	apparent KD of MS2 coat protein (input ligand: none) [nM]	apparent KD of MS2 coat protein [3] [nM]
UCGCUCUGGGUGAAUCCCAGAGAUGUGGAAGGAGCGGACGAAAGUCCAGGUAGGUCGCCAUCGAACAUGAGGAUCACCCAUGUAC [Same State - Arginine A (Freestyle 26)]	42.7	77.5	75.6	46	46.2
UGACAUUGCUCAGAUACCAGACAUGAGGAUCACCCAUGUGCCAACGUACAAAUAAUAAAUGUCCCUUGGCAGCUGAGCAAUGUCU [TheoBX 15 #MS2Left #Theo2]	16.2	19.9			11.4
UUUACAUGAGGAUCACCCAUGUGCCAUGAUACCAGACAUGAAAAUGUCCCUUGGCAGCAUGAAAGAUCCACGUCGGAAACGACGG [Krpole]	72.2	248			113
CGAUAGGGUCAAUACCUAAUCAUAUCUGAAGGAGCGUGGAUAUACACAGGUAGGUCGCAGAAUCACAUGAGGAUCACCCAUGUCC [Same State Arginine A GF13]	60.2	127	154	102	96.5
CUAUUUAUAGCGGCCGCCACUUACUCAUGAGGUAACAACAUGAGGAUCACCCAUGUUUGAGGAUCAAGGACCGGGCUAUGGAUAG [AstrosSSTryB#12]	24.5	37	31.5		
GGACUAACCAGAAGGAGCGACGCGCAGAAACUGCAAAUUCCUCCACACGAGGAUCACCCGUGUCAGGUAGGUCGCUGGUUAGUCG	16.5	23	16.1	16.6	18.2
GCACCAGGUACGGAUACCAGACAUUGCCAAUUGGGUGAACAUGAGGAUCACCCAUGUUAAGUCCCUUGGCAGCCGUACCUGGUGC [ETB NP+V+V2 #6 Same Structure]	11.4	17.7	178	10.6	11.5
CCGGCCAAUUAGAAAUUAAUUGGCCGGAAACGAGGACCGGUACGGCCGCCACUCGUGGCGGGAGAAACAUGAGGAUCACCCAUGU	23	54.7	53		
GACAUGAGGAUCACCCAUGUUGACUAUGAAGGAGCGUCGGAAAUGACAGGUAGGUCGCAUAGUCGACCUUGUAUUUUGUGUGUUU [EAA #9]	12.7	17.4	12.5	10.4	11.6
UCAUGCAGGUCGGCCGCCACUACACACAUGAGGAUCACCCAUGUAGUUACUGGGUGAAGUGGCAGUAGGACCGGGACCUGCACAU [Brourdmod16]	253	369	452	607	460
UUGUUGUUUGGAAGGAGCGUGUAUGAUUAAGAACAUGAGGAUCACCCAUGUUGUAGGGUAGCACAGGUAGGUCGCCGGGUGGUGG [11.V]	34.8	36.8	31.2	25.1	21.1
ACGAUAGGACUUGAGGAUCACCCAGGUGAUACCAGCCUGGAAACAGGCCCUUGGCAGCACUAAUACUCCAAUAACCUAUCGAAUA [TheoAX 16 #MicroSwitchBubble #AlternativeMS2]	341	347	417	195	332
UAAAACAUGAGGAUCACCCAUGUAAUUGAUACCAGAGUGAUGAUCCUCCCUUGGCAGCAAAUAACGCAUUGAUUACAAUGCGAAA [Mat - Same State Theophlline A - Mod of Eli - D27]	27.9	105			35
UUUUUUAACUGAAGGAGCGUCACAUGAGGAUCACCCAUGUAUUAGAUGAGAAGGAUCUUGUGGCAGGUAGGUCGCAGAGGAAGGG [e-argB-V]	99.6	187	181	389	136
CUAUUGAUAGCGGCCGCCACUUACUCAUGAGGUAACAACAUGAGGAUCACCCAUGUUUGAGGAUCAAGGACCGGGCUAUUGAUAG [AstrosSSTryB#13]	30	33.9	30.9	27.6	23.8
UUAUUUAUAAUGGAUACCAGUAUAAUGGCCGCAAAUCCUGACAUGAGGAUCACCCAUGUAUGCCCUUGGCAGCUGUUAUGGGUUU [XTheo B #23]	34.7	51.2			38.7
ACAUGAGGAUCACCCAUGUCACUCGUGUUCCGAGGACCGGUACGGCCGCCACUCGGUCCUCGCGAGGAUGGUCAAAGACUAUCCA [Omei Trp A SS B v2]	37.1	66.8	71.4	75.2	48.6
AUUCCAUUGGUGCAGUUGUUAAAUGGCGAUACCAGCGUGGAAACACGCCCUUGGCAGCGCCAAAACAUGAGGAUCACCCAUGUUA [Havirov]	32.1	70.5			59.1
ACGCUGAUUGAUUACAAUCAGCGAAAAGAUACCAGUGGGUAAUCCCACCCUUGGCAGCUUAAACUUGAGGAUCACCCAGGUGGUA [TheoAS 17 #MS2Right #BothOrNeither #AlternativeMS2]	88.2	419	439	238	630
